Results taken from patent US7303917B2, “Modification of pollen coat protein composition” (priority 1998, dated 2007).
Entries after “also recorded” stand apart in the source; their conditions may differ.

T1: papain (Carica papaya, UniProt P00784)
T1 sequence (P00784 whole entry, looked up): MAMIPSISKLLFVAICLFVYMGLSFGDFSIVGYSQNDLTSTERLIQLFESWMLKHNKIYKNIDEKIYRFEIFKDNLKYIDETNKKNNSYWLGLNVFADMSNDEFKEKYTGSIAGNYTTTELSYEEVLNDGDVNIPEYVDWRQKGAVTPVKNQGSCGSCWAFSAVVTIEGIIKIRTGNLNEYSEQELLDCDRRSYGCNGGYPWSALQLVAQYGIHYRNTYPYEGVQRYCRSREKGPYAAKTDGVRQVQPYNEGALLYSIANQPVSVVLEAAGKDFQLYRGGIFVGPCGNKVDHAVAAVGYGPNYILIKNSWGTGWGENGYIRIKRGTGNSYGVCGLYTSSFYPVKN

B1: Papain: cysteine protease papain (twice crystallized, Sigma) (protein, UniProt P00784 134-345, looked up)
Papain: IPEYVDWRQKGAVTPVKNQGSCGSCWAFSAVVTIEGIIKIRTGNLNEYSEQELLDCDRRSYGCNGGYPWSALQLVAQYGIHYRNTYPYEGVQRYCRSREKGPYAAKTDGVRQVQPYNEGALLYSIANQPVSVVLEAAGKDFQLYRGGIFVGPCGNKVDHAVAAVGYGPNYILIKNSWGTGWGENGYIRIKRGTGNSYGVCGLYTSSFYPVKN
B2: OV7: phage displaying the Onchocerca volvulus cysteine protease inhibitor OV7 on their surface as fusion to gene 3 coat protein (protein)
chain: AKNPSKMESKTGENQDRPVLLGGWEDRDPKDEEILELLPSILMKVNEQSNDEYHLMPIKLLKVSSQVVAGVKYKMDVQVARSQCKKSSNEKVDLTKCKKLEGHPEKVMTLEVWEKPWENFMRVEILGTKEV
modifications: left off: large carriers
B3: onchocystatin (OV7): recombinant cysteine protease inhibitor onchocystatin (OV7) from Onchocerca volvulus (protein)
chain: B2 chain
B4: OV7-GST: cysteine protease inhibitor OV7 conjugated to GST (protein)
chain: B2 chain
modifications: left off: a dimerising Fc or GST

What was measured:
[1] = test system: Nicotiana tabacum cv. Delgold pollen; test: In vitro germination of tobacco pollen; type: cell-based; details: 42 μM papain, 71 μM cycloheximide; for effect on germination and pollen tube growth: 30 μM onchocystatin added to 42 μM papain; for Average Pollen Tube Length / Pollen Germination: 3 h culture, 25° C, 30 μM onchocystatin, 1 mg/ml casein
Description: Pollen from Nicotiana tabacum cv. Delgold was harvested by placing 5 dehiscent anthers in 1 ml of sterile Brewbaker and Kwack medium (Brewbaker, J. and Kwack, B. Amer. J. Bot. 50: 859-865 (1963)) containing various concentrations of cylcoheximide, or papain, or casein. The medium consisted of 10% w/v sucrose, 100 ppm H3BO3, 300 ppm Ca (NO3)2.4H2O, 200 ppm MgSO4.7H2O, and 100 ppm KNO3 with either 42 μM papain (twice crystallized, Sigma), with or without 30 μM recombinant onchocystatin, or 71 μM cycloheximide (Sigma), or 1 mg/ml casein. Anthers were vortexed in medium for 30 sec followed by centrifugation at 2,000 rpm for 2 min. Pollen was cultured in 50 μl drops in sterile 15×60 mm petri dishes at 25° C. The percentage of pollen grains germinated after 3 h of culture was measured and the average pollen tube length was recorded using an ocular micrometer on an inverted microscope.

papain [2] = target: papain (Carica papaya, UniProt P00784); test: Protease inhibition assay (papain, Pyr-Phe-Leu-pNA); type: biochemical; details: 20 ng papain, 2 to 3 h, read at 410 nm
Description: (§1) Mature pollen was isolated by gently squeezing anthers from open flowers just prior to anther dehiscence in a microfuge tube with a pestle to release the pollen grains and suspend them in extraction buffer (100 mM HEPES pH 7.5, 10 mM KCl, 1 mM MgCl2, 1 mM EDTA, 1 mM DTT, 0.4 M sucrose, 0.01% Triton X-100). Pollen grains were filtered through […] mesh to remove debris, pelleted by centrifugation and frozen in liquid nitrogen. Pollen grains were ground to a fine powder, mixed with 1.4 μl per anther of extraction buffer (100 mM MES pH 6.5, 1% Triton X-100) and centrifuged at 4° C. for 5 min. Protein contents of extracts were determined using the BioRad Protein Assay.
(§2) For the protease inhibition assay, 5 μg of protein extract in 50 μl of extraction buffer described above was added to a microtiter plate followed by 20 ng of papain in 50 μl of 50 mM MES pH6.5 and incubated for 15 min at room temperature. Then 100 μl of substrate solution (1 mM Pyr-Phe-Leu-pNA (BACHEM) in activation buffer (30% DMSO, 1 mM EDTA,.1 mM DTT in 50 mM MES pH 6.5)) was added and the plate incubated in the dark at room temperature. The plate was read after 2 to 3 h of incubation on a plate reader at 410 nm. Results were calculated as the percentage of papain protease activity present in the mature pollen protein extract of the non-transformed control plant±standard deviation. […]

[3] = Phage ELISA, no antigen coated in well; type: binding
Description: (§3) A SacI and Nco I digest of the coding region of the protease inhibitor clone OV7 (Lustigman et al 1991), is ligated to the pCantab 5E vector (Pharmacia Biotech) Sac I and Nco I sites. This phagemid is transformed into E. coli TG1 cells by electroporation. An overnight culture of 10 μL of these cells are grown in 5 ml of SOBAG medium containing 10 μl of carbenicillin (50 mg/mL) at 28° C. The next day, 0.5 ml of this culture is used to inoculate 25 ml of 2×YT medium, containing 50 μl of carbenicillin (50 mg/ml) and 1.56 ml of 2M glucose and grown for 1.25 h at 37° C., with shaking at 250 rpm. At this point 62.5 μl of helper phage strain M13K07 ([…]) is added and the cells were incubated at 37° C. for 30 min with shaking at 150 rpm, and for another 30 min at 250 rpm. Recombinant phage particles are harvested by centrifugation and PEG precipitation. […]
(§4) After incubating the phage indicated (OV7-those displaying the cysteine protease inhibitor on their surface, M13-wild type or control phage not displaying any foreign protein, and a no phage control) for 2 h, the wells are washed in PBS with 0.5% Tween-20. Phage particles that bound to the antigens are detected with a 1:5000 dilution of anti-M13 antibody/HRP conjugate (Pharmacia). Detection is with the HRP substrate ABTS solution (Pharmacia) for 30 min and absorbance was measured at 410 nm.

anti-OV7 antibodies = test: Phage ELISA, wells coated with anti-OV7 antibodies; type: binding, rabbit; details: well coated with anti-OV7 antibodies; phage diluted 1 in 100
Description: as §3, §4

papain [4] = target: T1, papain; test: Phage ELISA, wells coated with papain; type: binding; details: well coated with papain
Description: as §3, §4

trypsin = test: Phage ELISA, wells coated with trypsin; type: binding; details: well coated with trypsin
Description: as §3, §4

papain [5] = target: T1, papain; test: Protease inhibition assay (papain, Pyr-Phe-Leu-pNA); type: biochemical; details: 20 ng papain, 2 to 3 h, read at 410 nm; remark: listed apart in the source
Description: as §1, §2

Row | Molecule | effect on germination and pollen tube growth [1] | Average Pollen Tube Length [1] [μm] | Pollen Germination [1] [%] | other results
1 | C[C@@H]1C[C@@H]([C@H](O)CC2CC(=O)NC(=O)C2)C(=O)[C@@H](C)C1 [Cycloheximide, cycloheximide] | inhibited the germination and elongation of pollen tubes | 15 | 27 | 
2 | CC(C)C[C@H](NC(=O)[C@H]1O[C@@H]1C(=O)O)C(=O)NCCCCN=C(N)N [E-64, reference compound] |  |  |  | percentage of papain protease activity of the non-transformed control plant extract (papain [2]): 3%
3 | Casein |  | 95 | 74 | 
4 | B1 | inhibited the germination and stunted the growth of pollen tubes | 28 | 56 | 
5 | B2 |  |  |  | Result [3]: very little OV7-plate; O.D.410 ([3]; phage diluted 1 in 100): 0.125; O.D.410 (anti-OV7 antibodies): 0.451; Result (papain [4]): binding specifically to papain; O.D.410 (papain [4]; phage diluted 1 in 100): 0.788; Result (trypsin): does not bind to trypsin; also recorded: no OV7-trypsin interaction; O.D.410 (trypsin; phage diluted 1 in 100): 0.037
6 | B3 | restored the germination and pollen tube growth |  |  | 
7 | B4 |  |  |  | percentage of papain protease activity of the non-transformed control plant extract (papain [5]): 2%
